# Data as given in PMC3035906 (Cell Death & Disease, 2010).
# Molecular target: DR4-Ig (death receptor 4, Ig fusion) (UniProt O00220)
# Assay: SPR
# Sequence of DR4-Ig (death receptor 4, Ig fusion) (O00220 24-239): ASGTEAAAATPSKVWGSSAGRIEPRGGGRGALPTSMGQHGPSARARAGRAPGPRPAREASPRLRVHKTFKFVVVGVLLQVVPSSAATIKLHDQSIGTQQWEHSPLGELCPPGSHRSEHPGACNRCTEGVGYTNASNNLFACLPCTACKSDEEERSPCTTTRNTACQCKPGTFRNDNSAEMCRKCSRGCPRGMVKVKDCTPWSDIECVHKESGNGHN
Binder,Kd,koff,kon
rhTRAIL variant 4C7 (G131R/R149I/S159R/N199R/K201H/S215D) (ligand) VRERGPQRVAAHITGTRRRSNTLSSPNSKNEKALGIKINSWESSRRGHSFLSNLHLRNGELVIHEKGFYYIYSQTYFRFQEEIKERTHNDKQMVQYIYKYTDYPDPILLMKSARNSCWSKDAEYGLYSIYQGGIFELKENDRIFVSVTNEHLIDMDHEASFFGAFLVG,0.021 ± 0.01 nM,5.9e-05 s⁻¹,2.81e+06 M⁻¹ s⁻¹
rhTRAIL variant 4C9 (G131R/R149I/S159R/S215D) (ligand) VRERGPQRVAAHITGTRRRSNTLSSPNSKNEKALGIKINSWESSRRGHSFLSNLHLRNGELVIHEKGFYYIYSQTYFRFQEEIKENTKNDKQMVQYIYKYTDYPDPILLMKSARNSCWSKDAEYGLYSIYQGGIFELKENDRIFVSVTNEHLIDMDHEASFFGAFLVG,0.025 ± 0.02 nM,5.8e-05 s⁻¹,2.35e+06 M⁻¹ s⁻¹
